# Substitutions are numbered along the chain they refer to. In names and notes the source's numbering stands.
# T1: cynomolgus monkey transferrin receptor 1 (cTfR1) (cynomolgus monkey (Macaca fascicularis), UniProt Q5RDH6 89-760 (Pongo abelii entry), limits assumed)
# T1 construct: Recombinant cynomolgus TfR1; also called cyTfR1; cyno TfR1
# T1 chain: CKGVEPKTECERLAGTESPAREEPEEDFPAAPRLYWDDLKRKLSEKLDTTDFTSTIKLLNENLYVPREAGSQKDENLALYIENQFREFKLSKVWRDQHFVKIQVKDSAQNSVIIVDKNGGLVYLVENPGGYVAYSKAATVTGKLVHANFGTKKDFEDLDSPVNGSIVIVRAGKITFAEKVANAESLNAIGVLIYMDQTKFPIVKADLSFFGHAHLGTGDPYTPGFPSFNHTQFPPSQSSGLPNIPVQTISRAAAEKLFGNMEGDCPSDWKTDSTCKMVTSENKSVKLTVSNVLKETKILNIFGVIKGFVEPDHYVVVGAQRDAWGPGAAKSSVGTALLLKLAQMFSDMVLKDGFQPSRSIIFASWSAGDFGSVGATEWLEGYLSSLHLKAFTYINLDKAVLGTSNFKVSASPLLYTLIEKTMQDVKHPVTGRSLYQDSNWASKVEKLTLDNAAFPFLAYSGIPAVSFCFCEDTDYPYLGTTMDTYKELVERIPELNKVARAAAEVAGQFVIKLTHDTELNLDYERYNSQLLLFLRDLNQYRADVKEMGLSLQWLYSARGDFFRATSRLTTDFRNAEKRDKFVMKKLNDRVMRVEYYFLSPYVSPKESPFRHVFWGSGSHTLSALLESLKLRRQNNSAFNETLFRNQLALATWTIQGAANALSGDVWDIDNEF
# B1: humanized anti-TfR Fab 3M12 VH3/Vk2 (Fab, V domains shown)
# VH: QVQLQESGPGLVKPSQTLSLTCSVTGYSITSGYYWNWIRQPPGKGLEWMGYITFDGANNYNPSLKNRVSISRDTSKNQFSLKLSSVTAEDTATYYCTRSSYDYDVLDYWGQGTTVTVSS
# VL: DIQMTQSPSSLSASVGDRVTITCRASQDISNFLNWYQQKPGQPVKLLIYYTSRLHSGVPSRFSGSGSGTDFTLTISSLQPEDFATYFCQQGHTLPYTFGQGTKLEIKR
# B2: humanized anti-TfR Fab 3M12 VH4/Vk2 (Fab, V domains shown)
# VH: B1 VH with S23T, M49I
# VL: B1 VL
# B3: humanized anti-TfR Fab 3M12 VH3/Vk3 (Fab, V domains shown)
# VH: B1 VH
# VL: B1 VL with F87Y
# B4: humanized anti-TfR Fab 3A4 VH3 (N54T)/Vk4 (Fab, V domains shown)
# VH: EVQLVQSGSELKKPGASVKVSCTASGFNIKDDYMYWVRQPPGKGLEWIGWIDPETGDTEYASKFQDRVTVTADTSTNTAYMELSSLRSEDTAVYYCTLWLRRGLDYWGQGTLVTVSS
# VL: DIVMTQSPLSLPVTPGEPASISCRSSKSLLHSNGYTYLFWFQQRPGQSPRLLIYRMSNLASGVPDRFSGSGSGTDFTLKISRVEAEDVGVYYCMQHLEYPFTFGGGTKVEIKR
# B5: humanized anti-TfR Fab 5H12 VH5 (C33Y)/Vk4 (Fab, V domains shown)
# VH: QVQLVQSGAEVKKPGASVKVSCKASGYSFTDYYINWVRQAPGQGLEWMGWIYPGSGNTRYSERFKGRVTITRDTSASTAYMELSSLRSEDTAVYYCAREDYYPYHGMDYWGQGTLVTVSS
# VL: DIVMTQSPDSLAVSLGERATINCRASESVDGYDNSFMHWYQQKPGQPPKLLIFRASNLESGVPDRFSGSGSGTDFTLTISSLQAEDVAVYYCQQSSEDPWTFGQGTKLEIKR
# notes: also called 5H12 (VH4-C33Y/Vk4)
# B6: humanized anti-TfR Fab 5H12 VH5 (C33D)/Vk4 (Fab, V domains shown)
# VH: B5 VH with Y33D
# VL: B5 VL
# B7: humanized anti-TfR Fab 5H12 VH5 (C33Y)/Vk3 (Fab, V domains shown)
# VH: B5 VH
# VL: B5 VL with M4L, G72R
# B8: 3-A4 mouse monoclonal anti-TfR1 antibody (antibody, V domains shown)
# VH: EVQLQQSGAELVRPGASVKLSCTASGFNIKDDYMYWVKQRPEQGLEWIGWIDPENGDTEYASKFQDKATVTADTSSNTAYLQLSSLTSEDTAVYYCTLWLRRGLDYWGQGTSVTVSS
# VL: DIVMTQAAPSVPVTPGESVSISCRSSKSLLHSNGYTYLFWFLQRPGQSPQLLIYRMSNLASGVPDRFSGSGSGTAFTLRISRVEAEDVGVYYCMQHLEYPFTFGGGTKLEIK
# notes: Mouse mAb (IgG); also called 3-A04
# B9: 5-H12 mouse monoclonal anti-TfR1 antibody (antibody, V domains shown)
# VH: QIQLQQSGPELVRPGASVKISCKASGYSFTDYCINWVNQRPGQGLEWIGWIYPGSGNTRYSERFKGKATLTVDTSSNTAYMQLSSLTSEDSAVYFCAREDYYPYHGMDYWGQGTSVTVSS
# VL: DIVLTQSPTSLAVSLGQRATISCRASESVDGYDNSFMHWYQQKPGQPPKLLIFRASNLESGIPARFSGSGSRTDFTLTINPVEAADVATYYCQQSSEDPWTFGGGTKLEIK
# notes: Mouse mAb (IgG)
# B10: 3-M12 mouse monoclonal anti-TfR1 antibody (antibody, V domains shown)
# VH: DVQLQESGPGLVKPSQSLSLTCSVTGYSITSGYYWNWIRQFPGNKLEWMGYITFDGANNYNPSLKNRISITRDTSKNQFFLKLTSVTTEDTATYYCTRSSYDYDVLDYWGQGTTLTVSS
# VL: DIQMTQTTSSLSASLGDRVTISCRASQDISNFLNWYQQRPDGTVKLLIYYTSRLHSGVPSRFSGSGSGTDFSLTVSNLEQEDIATYFCQQGHTLPYTFGGGTKLEIK
# notes: Mouse mAb (IgG)
# B11: humanized anti-TfR Fab 3M12 VH3/Vk2 conjugated to DMPK-targeting oligonucleotide ASO300 (Fab, V domains shown)
# VH: B1 VH
# VL: B1 VL
# modifications: Fab conjugated to oligonucleotide ASO300; chain and residue not stated
# notes: Fab-oligonucleotide conjugate; The protein chains are those of the unconjugated Fab
# B12: humanized anti-TfR Fab 3M12 VH4/Vk3 conjugated to DMPK-targeting oligonucleotide ASO300 (Fab, V domains shown)
# VH: B1 VH with S23T, M49I
# VL: B1 VL with F87Y
# modifications: Fab conjugated to oligonucleotide ASO300; chain and residue not stated
# notes: as for B11
# B13: humanized anti-TfR Fab 3A4 VH3 (N54T)/Vk4 conjugated to DMPK-targeting oligonucleotide ASO300 (Fab, V domains shown)
# VH: B4 VH
# VL: B4 VL
# modifications: Fab conjugated to oligonucleotide ASO300; chain and residue not stated
# notes: as for B11
# B14: humanized anti-TfR Fab 3A4 VH3/Vk4 conjugated to DMPK-targeting oligonucleotide ASO300 (Fab, V domains shown)
# VH: B4 VH with T55N
# VL: B4 VL
# modifications: Fab conjugated to oligonucleotide ASO300; chain and residue not stated
# notes: as for B11
# B15: humanized anti-TfR Fab 3A4 VH3 (N54S)/Vk4 conjugated to DMPK-targeting oligonucleotide ASO300 (Fab, V domains shown)
# VH: B4 VH with T55S
# VL: B4 VL
# modifications: Fab conjugated to oligonucleotide ASO300; chain and residue not stated
# notes: as for B11
# B16: humanized anti-TfR Fab 5H12 VH5 (C33Y)/Vk4 conjugated to DMPK-targeting oligonucleotide ASO300 (Fab, V domains shown)
# VH: B5 VH
# VL: B5 VL
# modifications: Fab conjugated to oligonucleotide ASO300; chain and residue not stated
# notes: Fab-oligonucleotide conjugate; also called 5H12 (VH4-C33Y/Vk4) conjugate
# B17: humanized anti-TfR Fab 5H12 VH5 (C33D)/Vk4 conjugated to DMPK-targeting oligonucleotide ASO300 (Fab, V domains shown)
# VH: B5 VH with Y33D
# VL: B5 VL
# modifications: Fab conjugated to oligonucleotide ASO300; chain and residue not stated
# notes: as for B11
# B18: humanized anti-TfR Fab 5H12 VH5 (C33Y)/Vk3 conjugated to DMPK-targeting oligonucleotide ASO300 (Fab, V domains shown)
# VH: B5 VH
# VL: B5 VL with M4L, G72R
# modifications: Fab conjugated to oligonucleotide ASO300; chain and residue not stated
# notes: as for B11
# Biological target: T1, cynomolgus monkey transferrin receptor …
# Experiment: ELISA, cyno TfR1, Fab, day 0 of thermal stability test
row,Binding affinity cyno TfR1 d 0 [nM],Binder
1,9.9,B1
2,1.4,B2
3,4.7,B3
4,156,B4
5,3.3,B5
6,3.5,B6
7,2.1,B7

# Biological target: T1, cynomolgus monkey transferrin receptor …
# Experiment: ELISA, cyno TfR1, Fab after 9 days at 40 C
row,Binding affinity cyno TfR1 d 9 [nM],Binder
1,19.5,B1
2,5.01,B2
3,15.6,B3
4,128,B4
5,0.26,B5
6,0.63,B6
7,0.69,B7

# Biological target: T1, cynomolgus monkey transferrin receptor …
# Experiment: ELISA on plate-coated cyno TfR1, unconjugated Fab
row,Fab binding affinity ELISA [nM],Binder
1,9.9,B1
2,1.4,B2
3,4.7,B3
4,156,B4
5,3.3,B5
6,3.5,B6
7,2.1,B7

# Biological target: T1, cynomolgus monkey transferrin receptor …
# Experiment: average KD, antibody alone; method not given
row,Kd [nM],Binder
1,2.32,B8
2,12,B9
3,5.18,B10

# Biological target: T2, human transferrin receptor 1 (hTfR1) (human, UniProt P02786 89-760)
# T2 construct: Recombinant human TfR1; also called huTfR1; Human TfR1
# T2 sequence (P02786 89-760 limits assumed): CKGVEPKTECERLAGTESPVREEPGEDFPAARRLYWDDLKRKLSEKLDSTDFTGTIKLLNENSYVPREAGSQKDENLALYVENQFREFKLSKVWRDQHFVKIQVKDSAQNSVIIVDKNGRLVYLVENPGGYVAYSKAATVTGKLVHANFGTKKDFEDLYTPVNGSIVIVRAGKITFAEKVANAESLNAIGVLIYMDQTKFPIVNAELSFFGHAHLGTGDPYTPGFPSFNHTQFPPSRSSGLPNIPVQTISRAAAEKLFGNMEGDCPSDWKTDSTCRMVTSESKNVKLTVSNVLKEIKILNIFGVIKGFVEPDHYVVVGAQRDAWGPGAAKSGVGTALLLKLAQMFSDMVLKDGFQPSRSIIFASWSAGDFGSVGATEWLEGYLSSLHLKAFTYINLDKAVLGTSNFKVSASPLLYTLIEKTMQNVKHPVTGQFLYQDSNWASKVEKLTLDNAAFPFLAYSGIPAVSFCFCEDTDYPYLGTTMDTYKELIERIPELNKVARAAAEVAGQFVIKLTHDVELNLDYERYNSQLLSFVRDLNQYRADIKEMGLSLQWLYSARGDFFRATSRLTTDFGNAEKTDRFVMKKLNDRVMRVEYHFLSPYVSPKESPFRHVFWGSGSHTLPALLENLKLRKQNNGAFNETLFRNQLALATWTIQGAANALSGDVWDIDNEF
# Experiment: ELISA on plate-coated human TfR1, Fab-ASO300 conjugate
row,Conjugate binding affinity ELISA [nM],Binder
1,2.2,B11
2,1.7,B12
3,2.8,B13
4,2.8,B14
5,2.9,B15
6,23.7,B16
7,110,B17
8,33.4,B18

# Biological target: T1, cynomolgus monkey transferrin receptor …
# Experiment: ELISA, cyno TfR1, Fab-ASO300 conjugate
row,DMPK oligo conjugate binding to cyno TfR1 [nM],Binder
1,2.26,B11
2,1.85,B12
3,5.12,B13
4,7.59,B14
5,4.1,B15
6,13.9,B16
7,10.2,B17

# Biological target: T1, cynomolgus monkey transferrin receptor …
# Experiment: ELISA on plate-coated cyno TfR1, Fab-ASO300 conjugate
row,Conjugate binding affinity ELISA [nM],Binder
1,2.9,B11
2,2.1,B12
3,4.7,B13
4,7.6,B14
5,7.8,B15
6,3.3,B16
7,10.2,B17
8,2.3,B18
